Assay: yeast display, Sf9 membrane polyspecificity reagent, FACS + sequencing; frameworks hold sequencing errors
Outline: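 Using colony PCR, genes from sorted yeast display clones were amplified, then sequenced on MiSeq at 2 × 250 and filtered by CDR length. The clones had been stained with 10% biotinylated, detergent-solubilized Sf9 membrane reagent for 1 hour at 4 °C and sorted by FACS into low and high (top ~1%) gates on anti-HA and streptavidin fluorescence. Polyreactivity labels come from the gate of origin.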

Row | Sequence | polyreactivity (PSR sort gate)
1 | QVQLVESGRGLVQAGGSLPLSCSASGSIFAYYTMGWYRQAPGKERDLVAAISETGGSTYYADSVKGRFTISRDIAKNTVYLQMNSLKPEDTAVYYCNADKYYYYTGQEYYPQYGYWGQGTQVSVSS | low polyreactivity
2 | QVQLVESGRGLVQAGGSLRISCAASGFTFVRYVMGWYRQAPGTESELVAAISRSGGSTHYADSVKGRFTISRDNAKNTVYFQMTSLKPEDTAVYYCAAACPRWPGQGDYWGQGTQVTVSS | high polyreactivity
3 | QVQLVESGRGLVQAGGSLRISCAASGRTFRHNVMGWYRQAAGQERELVAAITWGDASTYYADSVKGRFTISRDNAKNTVYLQMNSLKPEDTAVYYCAASDYRRSYDYWGQGTQVTVSW | low polyreactivity
4 | QVQLVESGRGLVQAGGSLRISCAASGRTFYSYAMGWYRQAPGKERELVAAITSSGGRTYYADSVKGRFTISRDNAKNTVYLQMNSLKPEDTAVYYCNKLRRSPNSQYYYWGQGTQVTVSS | high polyreactivity
5 | QVQLVESGRGLVQAGGSLRISCAASGSTFIFNTMGWYRQAPGKEMELVATITGDGRTNYADSVKGRFTISRDNAKNTVYLQMNSLKPEDTAVYYCDADGYDQYPLWSPPGDYWGQGTQVTVSS | low polyreactivity
6 | QVQLVESGRGLVQAGGSLRLRCAASGSIFKSNVMGWYRPAPGKERELVAVITRSGGSTYYADSEKGRFTISRDNAKNTVYLQMNSLKPEDTAVYYCNRAAGYWAGYYHWGQGTQVTVSS | high polyreactivity
7 | QVQLVESGRGLVQAGGSLRLRCAASGSTFNENVMGWYRQAPGKERELVAAIRTGSGSTYYADSVKGRFTISRDNAKNTVYLQMNSLKPEDTAVYYCYKDRGYSSLFSLFPGDYWGQGTQVTVSS | low polyreactivity
8 | QVQLVESGRGLVQAGGSLRLSCAASGFTFAFYAMGWYRQAPGKERELVAAISRRGGSTTYADSVKGRFTISRDNAKNTVYLQMNSLIPEDSAVYYCNAVSTRNPGPDYYYWGQGTQVTVSS | high polyreactivity
9 | QVQLVESGRGLVQAGGSLRLSCAASGFTFGVNAMGWYRQAPGKERELVAAITRSGGTTYYADSVKGRFTISRDNAKNTVYLQMNSLKPEDTAVYYCNRRARSYADDYWGQGTQVTVSS | high polyreactivity
10 | QVQLVESGRGLVQAGGSLRLSCAASGFTFPDNTMGRYRQAPGKERVLVAGIRRRGGSTYYADSVKGRFTISRDHAKKTVSLQMNSLKPEDTAVYYCAASRAVTQYSGGGYWGQGTQVTVSS | high polyreactivity
11 | QVQLVESGRGLVQAGGSLRLSCAASGFTFSYYAKGWYRQAPGKEREFVAAISWSGGSTYYADSVKGRFTLSRDNAKNTVYLQMNSLKPEDTAVYNSAARSTGGSPGRRFTRGYDYWGQGTQVTVSS | high polyreactivity
12 | QVQLVESGRGLVQAGGSLRLSCAASGFTFYYYAMGRYRQAPGKERELVAAISTRDGNTYYADSVKARFTISRDNAKNTVYLQMKSLKTEVTAVYYCAAAYFRYYPYDYWGQGTLVTVSS | low polyreactivity
13 | QVQLVESGRGLVQAGGSLRLSCAASGGIFTDYTMGWYRQAPGKERELVAAITWTGGSTYYADSVKGRFTISRDNAKNTFYLQMNSLKPEDSAVYYCAADDYWVNLVYWGQGTQVTVSS | low polyreactivity
14 | QVQLVESGRGLVQAGGSLRLSCAASGGTFGWYAMGWYRQAPGKERELVAAISQGGGSTYYADSVKGRFTISRDNAKNTVYLQMNSLKPEDTAVYYCAAYLGRAKGYEYWGQGTQVTVSS | high polyreactivity
15 | QVQLVESGRGLVQAGGSLRLSCAASGIIFELYAMGWYRQAPGKEREFVAAINFSDGSTDYADSVKGRFTISRDNAKKTVYLKMNSLKPEDTAVYYCNADSIAYGSIIHGYWGQGTQVTVSS | low polyreactivity
16 | QVQLVESGRGLVQAGGSLRLSCAASGIIFKRYAMGWYRQAPGKERELVATINRDGRTSYADSVKGRFTSSRDNAKNTVYLQMHSLKPEDTAVYYCAATYLLERPTSKHPRYDYWGQGTQVTLSS | low polyreactivity

From the nanobody polyreactivity screen of Harvey et al. (2022)
